What was measured:
[1] = biological target: human ROR1 (full-length, on the cell surface) (human) (UniProt Q01973); assay: cell-based or functional assay
[2] = biological target: human ROR1 (full-length, on the cell surface) (human) (UniProt Q01973); assay: flow cytometry, A549 cells (Table 5-2)
[3] = biological target: human ROR1 (full-length, on the cell surface) (human) (UniProt Q01973); assay: flow cytometry, A549 cells (Table 5-3)
[4] = biological target: human ROR1 (full-length, on the cell surface) (human) (UniProt Q01973); assay: flow cytometry, A549 cells (Table 5-1A)
[5] = biological target: human ROR1 (full-length, on the cell surface) (human) (UniProt Q01973); assay: flow cytometry, A549 cells (Table 5-1B)
[6] = biological target: human ROR1 (full-length, on the cell surface) (human) (UniProt Q01973); assay: flow cytometry, HT-29 cells (Table 5-2)
[7] = biological target: human ROR1 (full-length, on the cell surface) (human) (UniProt Q01973); assay: flow cytometry, HT-29 cells (Table 5-3)
[8] = biological target: human ROR1 (full-length, on the cell surface) (human) (UniProt Q01973); assay: flow cytometry, HT-29 cells (Table 5-1A)
[9] = biological target: human ROR1 (full-length, on the cell surface) (human) (UniProt Q01973); assay: flow cytometry, HT-29 cells (Table 5-1B)
[10] = biological target: human ROR1 (full-length, on the cell surface) (human) (UniProt Q01973); assay: flow cytometry, Jeko-1 cells (Table 5-2)
[11] = biological target: human ROR1 (full-length, on the cell surface) (human) (UniProt Q01973); assay: flow cytometry, Jeko-1 cells (Table 5-3)
[12] = biological target: human ROR1 (full-length, on the cell surface) (human) (UniProt Q01973); assay: flow cytometry, Jeko-1 cells (Table 5-1A)
[13] = biological target: human ROR1 (full-length, on the cell surface) (human) (UniProt Q01973); assay: flow cytometry, Jeko-1 cells (Table 5-1B)
[14] = biological target: human ROR1 (full-length, on the cell surface) (human) (UniProt Q01973); assay: flow cytometry, Ba/F3-ROR1 cells (Table 5-2)
[15] = biological target: human ROR1 (full-length, on the cell surface) (human) (UniProt Q01973); assay: flow cytometry, Ba/F3-ROR1 cells (Table 5-3)
[16] = biological target: human ROR1 (full-length, on the cell surface) (human) (UniProt Q01973); assay: flow cytometry, Ba/F3-ROR1 cells (Table 5-1A)
[17] = biological target: human ROR1 (full-length, on the cell surface) (human) (UniProt Q01973); assay: flow cytometry, Ba/F3-ROR1 cells (Table 5-1B)
[18] = biological target: human ROR1 (full-length, on the cell surface) (human) (UniProt Q01973); assay: flow cytometry, A549 cells; average of two measurements
[19] = biological target: human ROR1 (full-length, on the cell surface) (human) (UniProt Q01973); assay: flow cytometry, HT-29 cells; average of two measurements
[20] = biological target: human ROR1 (full-length, on the cell surface) (human) (UniProt Q01973); assay: flow cytometry, Jeko-1 cells; average of two measurements
[21] = biological target: human ROR1 (full-length, on the cell surface) (human) (UniProt Q01973); assay: flow cytometry, Ba/F3-ROR1 cells; average of two measurements
[22] = biological target: human ROR1 (full-length, on the cell surface) (human) (UniProt Q01973); assay: flow cytometry on A549 cells, MFI against antibody concentration
[23] = biological target: human ROR1 (full-length, on the cell surface) (human) (UniProt Q01973); assay: flow cytometry on Ba/F3-ROR1 cells, MFI against antibody concentration
[24] = biological target: human ROR1 (full-length, on the cell surface) (human) (UniProt Q01973); assay: as above; remark: listed apart in the source
[25] = biological target: human ROR1 ECD protein (human) (UniProt Q01973); assay: BLI (Octet), antibody on AHC sensor, ROR1 ECD in solution; average of two measurements
Sequence of human ROR1 ECD protein (human) (Q01973 30-406): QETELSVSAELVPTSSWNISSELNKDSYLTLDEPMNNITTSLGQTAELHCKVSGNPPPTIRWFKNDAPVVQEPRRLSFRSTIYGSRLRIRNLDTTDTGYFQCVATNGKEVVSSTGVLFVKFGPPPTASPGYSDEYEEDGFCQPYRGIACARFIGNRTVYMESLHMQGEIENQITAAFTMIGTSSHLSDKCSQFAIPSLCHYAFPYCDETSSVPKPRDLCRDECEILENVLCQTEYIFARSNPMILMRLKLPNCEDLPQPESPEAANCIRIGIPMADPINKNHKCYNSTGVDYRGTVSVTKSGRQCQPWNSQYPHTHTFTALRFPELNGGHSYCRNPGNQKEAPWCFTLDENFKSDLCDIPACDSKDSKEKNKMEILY

[26] = biological target: human ROR1 ECD protein (human) (UniProt Q01973); assay: BLI (Octet), antibody on AHC sensor, ROR1 ECD in solution; average of three determinations

Sequence of human ROR1 (full-length, on the cell surface) (human) (Q01973 30-937): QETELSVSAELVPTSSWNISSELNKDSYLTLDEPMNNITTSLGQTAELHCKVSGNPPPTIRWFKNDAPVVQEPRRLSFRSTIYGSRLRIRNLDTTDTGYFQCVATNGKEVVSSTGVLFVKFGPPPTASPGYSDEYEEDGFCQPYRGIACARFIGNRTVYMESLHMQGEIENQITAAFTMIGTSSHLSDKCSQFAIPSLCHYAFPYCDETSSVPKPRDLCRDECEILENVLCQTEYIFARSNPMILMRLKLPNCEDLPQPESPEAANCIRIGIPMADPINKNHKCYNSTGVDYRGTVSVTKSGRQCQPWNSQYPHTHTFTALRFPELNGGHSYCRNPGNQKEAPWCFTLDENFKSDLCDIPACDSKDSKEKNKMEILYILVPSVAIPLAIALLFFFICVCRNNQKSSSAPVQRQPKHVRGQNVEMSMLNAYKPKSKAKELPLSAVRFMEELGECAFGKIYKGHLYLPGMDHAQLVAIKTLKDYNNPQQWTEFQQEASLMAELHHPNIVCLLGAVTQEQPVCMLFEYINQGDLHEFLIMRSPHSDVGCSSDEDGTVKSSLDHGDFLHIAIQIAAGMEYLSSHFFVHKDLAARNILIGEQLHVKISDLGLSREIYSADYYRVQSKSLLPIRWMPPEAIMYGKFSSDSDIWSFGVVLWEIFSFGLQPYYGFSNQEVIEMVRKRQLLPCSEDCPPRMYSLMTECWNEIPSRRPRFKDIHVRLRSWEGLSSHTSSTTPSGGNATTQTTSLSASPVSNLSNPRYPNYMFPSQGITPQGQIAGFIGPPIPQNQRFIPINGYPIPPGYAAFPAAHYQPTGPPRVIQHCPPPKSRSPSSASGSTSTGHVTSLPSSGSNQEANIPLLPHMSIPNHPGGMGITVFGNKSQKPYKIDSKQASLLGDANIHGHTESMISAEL

B1: anti-human ROR1 antibody UC961 (antibody, from another filing, V domains shown)
VH: QVQLQESGPGLVKPSQTLSLTCTVSGYAFTAYNIHWVRQAPGQGLEWMGSFDPYDGGSSYNQKFKDRLTISKDTSKNQVVLTMTNMDPVDTATYYCARGWYYFDYWGHGTLVTVSS
VL: DIVMTQTPLSLPVTPGEPASISCRASKSISKYLAWYQQKPGQAPRLLIYSGSTLQSGIPPRFSGSGYGTDFTLTINNIESEDAAYYFCQQHDESPYTFGEGTKVEIK
- EC50 of ADCC killing of Ba/F3-ROR1 cells by NK92MI-mCD16a-hFceRI cells [1]: 0.33 nM
- EC50 [2]: 0.46 nM
- EC50 [3]: 0.21 nM
- EC50 [4]: 0.41 nM
- EC50 [5]: 0.16 nM
- EC50 [6]: 0.21 nM
- EC50 [7]: 0.37 nM
- EC50 [8]: 0.12 nM
- EC50 [9]: 0.2 nM
- EC50 [10]: 0.14 nM
- EC50 [11]: 0.06 nM
- EC50 [12]: 0.22 nM
- EC50 [13]: 0.36 nM
- EC50 [14]: 0.31 nM
- EC50 [15]: 1.07 nM
- EC50 [16]: 0.62 nM
- EC50 [17]: 0.3 nM
- EC50 [18]: 0.277 nM
- EC50 [19]: 0.267 nM
- EC50 [20]: 0.447 nM
- EC50 [21]: 0.44 nM
- EC50 (read off the curve) [22]: 0.01 µg/mL
- EC50 (read off the curve) [23]: 0.05 µg/mL
- EC50 (read off the curve) [24]: 0.07 µg/mL
- Kd [25]: 15.8 nM
- koff [25]: 0.0137 s⁻¹
- kon [25]: 981000 M⁻¹ s⁻¹
- Kd [26]: 8.73 nM
- koff [26]: 0.0112 s⁻¹
- kon [26]: 1.26e+06 M⁻¹ s⁻¹

Source: US20240018237A1 (SICHUAN KELUN BIOTECH BIOPHARMACEUTICAL, published 2024)
